Data published in US20250074943A1 (Amgen, published 2025).
Numbered stars: 1 amine (or outer) side, 2 acyl side, 3 side chain; on linkers, the order of the positions; unused ones are H or OH. Bridge positions count the residues as written; N and C are the ends. Ends that are not written are not given here. Ttds = non-peptide spacer, O=C(CCC(=O)[*:2])NCCCOCCOCCOCCCN[*:1]

Columns and labels:
[1] = target: T1, recombinant DLL3 ectodomain (rhDLL3-Fc) (human, UniProt Q9NYJ7 27-492, biotinylated (NHS-LC-LC-biotin) in the BLI and SPR assays); assay: kinetic assay, method not told for this table (BLI, SPR or flow cytometry)
T1 construct: also called rDLL3-Fc; recombinant human DLL3 (rDLL3); not shown: Fc part
T1 sequence: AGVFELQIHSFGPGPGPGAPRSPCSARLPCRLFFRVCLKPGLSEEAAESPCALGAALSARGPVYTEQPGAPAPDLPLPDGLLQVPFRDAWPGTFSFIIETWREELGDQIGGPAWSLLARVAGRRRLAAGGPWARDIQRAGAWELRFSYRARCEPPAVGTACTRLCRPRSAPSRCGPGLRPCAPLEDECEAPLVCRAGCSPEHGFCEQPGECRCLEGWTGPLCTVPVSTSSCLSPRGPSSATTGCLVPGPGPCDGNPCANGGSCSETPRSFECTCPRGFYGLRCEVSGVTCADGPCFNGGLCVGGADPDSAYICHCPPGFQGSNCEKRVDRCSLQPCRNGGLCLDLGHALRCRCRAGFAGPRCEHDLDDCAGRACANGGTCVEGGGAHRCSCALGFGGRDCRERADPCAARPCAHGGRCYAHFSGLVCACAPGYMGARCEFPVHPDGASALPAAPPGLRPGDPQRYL

[2] = target: T1, recombinant DLL3 ectodomain (rhDLL3-Fc); assay: BLI (Octet), biotinylated rhDLL3-Fc on streptavidin sensors
Description: (§1) Binding kinetic assays were performed using Bio-layer interferometry (BLI) technology. The recombinant DLL3 ectodomain (rhDLL3-Fc) was biotinylated using EZ-Link Sulfo-NHS-LC-LC-Biotin Kit according to the manufacturer's protocol (Pierce by Thermo Fisher Scientific). The recombinant protein was incubated with an excess of NHS-LC-LC Biotin ester, in a molar ratio of 1:3 (protein: biotin), at 25° C. for 90 min. The un-reacted biotin ester was removed by subsequent buffer exchange on 0.5 ml Zeba spin desalting columns 7K MWCO (Pierce by Thermo Fisher Scientific).

[3] = target: T1, recombinant DLL3 ectodomain (rhDLL3-Fc); assay: BLI (Octet), biotinylated rhDLL3-Fc on streptavidin sensors; second listing of 1161 in Table 4, rounded
Description: as §1

[4] = target: T2, rat DLL3 expressed on CHO cells (rat, UniProt O88671 33-589); assay: flow cytometry, 100 µM biotin-labelled PepSP1462 detected with anti-streptavidin-AF488 antibody; CHO huFLT3 as negative control cell line
T2 construct: whole, on cells; also called CHO rtDLL3; High CHO rtDLL3
T2 sequence (looked up): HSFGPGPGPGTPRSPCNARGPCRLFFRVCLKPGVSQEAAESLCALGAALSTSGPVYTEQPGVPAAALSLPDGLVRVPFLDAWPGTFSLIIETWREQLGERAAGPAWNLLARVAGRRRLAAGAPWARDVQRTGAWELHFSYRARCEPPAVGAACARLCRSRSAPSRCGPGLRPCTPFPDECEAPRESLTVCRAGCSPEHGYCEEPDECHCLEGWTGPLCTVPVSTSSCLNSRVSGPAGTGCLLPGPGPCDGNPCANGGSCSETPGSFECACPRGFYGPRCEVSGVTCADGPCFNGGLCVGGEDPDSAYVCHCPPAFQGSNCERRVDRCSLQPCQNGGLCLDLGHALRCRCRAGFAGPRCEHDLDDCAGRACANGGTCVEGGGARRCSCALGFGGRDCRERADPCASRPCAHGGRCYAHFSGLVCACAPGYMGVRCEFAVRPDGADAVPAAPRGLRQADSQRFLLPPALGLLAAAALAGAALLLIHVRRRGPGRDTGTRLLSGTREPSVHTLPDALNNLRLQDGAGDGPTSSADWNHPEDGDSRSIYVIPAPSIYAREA
Description: (§2) Peptide PepSP1462, identified herein was biotin labeled. The biotin labeled peptide was detected using an anti-streptavidin antibody conjugated to AF488. The AF488-labeled peptide was detected directly.
(§3) Binding specificity of the labeled peptide for DLL3 was assessed using DLL3-negative cell lines. […] Cells were then washed twice with FACS buffer and incubated with an anti-streptavidin antibody conjugated to AF488 (Thermo Fisher). […] Cells were then washed twice with FACS buffer an resuspended in FACS buffer that contained 0.5 μg/ml propidium iodide. Cells were analyzed by flow cytometry, using an LSR Fortessa and FACSDiva software (Becton Dickinson) or Flow Jo (Flow Jo LLC).

[5] = target: T3, mouse DLL3 expressed on CHO cells (mouse, UniProt O88516 33-592); assay: as above
T3 construct: whole, on cells; also called CHO muDLL3
T3 sequence (looked up): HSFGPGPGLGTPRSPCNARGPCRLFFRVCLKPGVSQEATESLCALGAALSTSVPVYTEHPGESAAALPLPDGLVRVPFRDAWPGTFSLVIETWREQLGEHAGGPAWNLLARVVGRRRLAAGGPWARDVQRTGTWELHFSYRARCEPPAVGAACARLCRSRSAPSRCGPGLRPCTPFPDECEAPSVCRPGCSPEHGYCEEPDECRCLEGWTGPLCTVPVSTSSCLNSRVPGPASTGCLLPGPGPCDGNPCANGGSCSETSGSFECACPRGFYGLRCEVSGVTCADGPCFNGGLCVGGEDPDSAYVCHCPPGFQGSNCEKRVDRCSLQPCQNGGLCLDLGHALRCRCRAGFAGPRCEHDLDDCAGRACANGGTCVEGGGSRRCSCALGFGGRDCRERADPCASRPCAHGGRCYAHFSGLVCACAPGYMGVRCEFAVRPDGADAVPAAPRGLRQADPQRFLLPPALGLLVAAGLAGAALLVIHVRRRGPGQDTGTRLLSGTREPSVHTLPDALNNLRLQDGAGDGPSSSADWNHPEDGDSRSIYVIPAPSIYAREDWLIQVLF
Description: as §2, §3

[6] = target: T4, human FLT3 expressed on CHO cells (human, UniProt P36888 27-993); assay: flow cytometry, biotin-labelled PepSP1462 detected with anti-streptavidin-AF488 antibody
T4 construct: whole, on cells; Negative control cell line; also called CHO huFLT3; CHO huFTL3
Description: as §2, §3

Ac-AETVEFWGCTGTWGNETCWWGG-{Ttds-Lys-NH2} (disulfide 9-18 (inferred)) [PepSP1321]
RT [1]: 369

AETVEFWDCWGNTDDWTCTW-NH2 (disulfide 9-18 (inferred)) [PepSP1161]
Kd [2]: 42.5 nM | RT (residence time) [2]: 87.8 s | Kd [3]: 43 nM

Ac-AETVEFWWCNGNSENWTCTWGG-{Ttds-K(Ttds-Ttds)-NH2} (disulfide 9-18 (inferred), also called PspSP1342) [PepSP1342]
RT [1]: 199

Ac-AETVEFWWCNGNSENWTCTWGG-{Ttds-Lys-NH2} (disulfide 9-18 (inferred)) [PepSP1324]
RT [1]: 189

B1: PepSP1462 labeled with biotin (peptide)
peptide: Ac-AETVEFWWCNGNSENWTCTWGG-{Ttds-K(PEG4-DBCO)-NH2}
modifications: disulfide 9-18 (inferred); also: biotin label, site of attachment not given here
notes: also called PepSP1462-biotin peptide; labeled PepSP1462 peptide
binding result [4]: binds | binding result [5]: binds | binding result [6]: no binding (tested: 100 µM)
